In patent publication US20080096809A1:

Molecular target: Tar-1 all-L NBD peptide (Escherichia coli)
Assay: FRET in PE/PG (7:3 w/w) SUV, NBD donor and rhodamine-TAMRA acceptor, acceptor-to-lipid ratio 1:7500

KKKMVLGVFALLQLISGSLKK (modifications not checked) [Tar-1 diastereomeric rhodamine peptide]
energy transfer: 30%
